Results taken from patent US20030148958A1 (PROCTER AND GAMBLE, published 2003).
Ends that are not written are not given here.

T1: CRF2R
T1 sequence (Q13324 whole entry, species assumed, looked up): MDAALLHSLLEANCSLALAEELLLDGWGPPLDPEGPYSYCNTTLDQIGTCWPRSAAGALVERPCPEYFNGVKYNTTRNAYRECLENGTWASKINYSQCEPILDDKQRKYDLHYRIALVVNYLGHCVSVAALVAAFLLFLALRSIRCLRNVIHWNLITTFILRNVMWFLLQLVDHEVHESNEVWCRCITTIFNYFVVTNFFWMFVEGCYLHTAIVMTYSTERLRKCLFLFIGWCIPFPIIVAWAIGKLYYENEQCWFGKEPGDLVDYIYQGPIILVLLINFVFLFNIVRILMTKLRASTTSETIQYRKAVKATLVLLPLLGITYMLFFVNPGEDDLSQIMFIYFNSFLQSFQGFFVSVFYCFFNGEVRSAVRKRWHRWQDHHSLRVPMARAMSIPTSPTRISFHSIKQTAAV


molecular target: T1, CRF2R; test: cell-based or functional assay
For CRF1R Emax % in this document: reference of the scale not given here.
For CRF2R Emax % in this document: reference of the scale not given here.

Row | CRF2R EC50 [nM] | CRF2R Emax % [%] | Binder
1 | 5.77 | – | PSLSIDLPLLLLRTLLELEKTQSQRERAEQNAIIFASV-NH2 [SEQ ID NO 348]
2 | 51 | 75 | IVLSLDVSIGLLQILLEQARARAAREQATTNARILARV-NH2 [SEQ ID NO 370]
3 | 6.48 | 100 | IVLSLDVPIGLLQILLEQARARAAREQATTNARILARV-NH2 [SEQ ID NO 354]
4 | 13.8 | 100 | ZGPPISIDLPLQLLRKVIEIEKQEKEKQQAANNALLLATI (C-terminal amide) [SEQ ID NO 349]
5 | 14.9 | 100 | ZGPPISIDVPYYLLRKVIEIEKQEKEKQQAANNARLLARI (C-terminal amide) [SEQ ID NO 378]
6 | 23.4 | 94 | ZGPPISIDLPFQLLRKAIEIEKQEKEKQQAANNALLLDTI (C-terminal amide) [SEQ ID NO 365]
7 | 6.12 | 93 | ZGPPISIDLPFQLLRLLIEIEKQEKEKQQAANNALLLATI (C-terminal amide) [SEQ ID NO 360]
8 | 39.5 | 100 | ZGPPISIDVPFQLLRKVIEIEKQEKEKQQAANNARLLDTI (C-terminal amide) [SEQ ID NO 382]
9 | 6.03 | 95 | ZGPPISIDLSLELLRKMIEIEKQEKEKQQAANNRLLLDTI (C-terminal amide) [SEQ ID NO 355]
10 | 4.39 | 100 | ZGPPISIDLPFQLLRKIIEIEKQEKEKQQAANNALLLATI (C-terminal amide) [SEQ ID NO 362]
11 | 19.2 | 83 | ZGPPISIDVPYHLLRKVIEIEKQEKEKQQAANNARLLARI (C-terminal amide) [SEQ ID NO 377]
12 | 11.5 | 100 | ZGPPISIDVPYQLLRKVIEIEKQEKEKQQAANNARLLARI (C-terminal amide) [SEQ ID NO 375]
13 | 14.2 | 100 | ZGPPISIDVPYWLLRKVIEIEKQEKEKQQAANNARLLDTI (C-terminal amide) [SEQ ID NO 372]
14 | 13.2 | 100 | ZGPPISIDLPFQLLRKAIEIEKQEKEKQQAANNALLLATI (C-terminal amide) [SEQ ID NO 364]
15 | 23.1 | 100 | ZGPPISIDLPFQLLREVIEIEKQEKEKQQAANNALLLATI (C-terminal amide) [SEQ ID NO 359]
16 | 52.5 | 100 | ZGPPISIDVPYHLLRKVIEIEKQEKEKQQAANNARLLDTI (C-terminal amide) [SEQ ID NO 376]
17 | 19 | 100 | ZGPPISIDVPLQLLRKVIEIEKQEKEKQQAANNARLLDTI (C-terminal amide) [SEQ ID NO 380]
18 | 8.26 | 83.7 | ZGPPISIDLPFQLLRKVIEIEKQEKEKQQAANNALLLATI (C-terminal amide) [SEQ ID NO 352]
19 | 12.7 | 99 | ZGPPISIDVPLQLLRKVIEIEKQEKEKQQAANNARLLARI (C-terminal amide) [SEQ ID NO 381]
20 | 15.8 | 91 | ZGPPISIDVPYQLLRKVIEIEKQEKEKQQAANNARLLDTI (C-terminal amide) [SEQ ID NO 374]

Row | CRF2R EC50 [nM] | CRF2R Emax % [%] | Binder
21 | 11.6 | 98.1 | ZGPPISIDLPFQLLRKVIEIEKQEKEKQQAANNALLLDTI (C-terminal amide) [SEQ ID NO 350]
22 | 70.5 | 94 | ZGPPISIDVPIYLLRKVIEIEKQEKEKQQAANNARLLARI (C-terminal amide) [SEQ ID NO 379]
23 | 6.37 | 99 | ZGPPISIDLPFQLLRVLIEIEKQEKEKQQAANNALLLATI (C-terminal amide) [SEQ ID NO 361]
24 | 11.5 | 100 | ZGPPISIDVPYWLLRKVIEIEKQEKEKQQAANNARLLARI (C-terminal amide) [SEQ ID NO 373]
25 | 6.44 | 100 | ZGPPISIDLPFQLLRKLIEIEKQEKEKQQAANNALLLATI (C-terminal amide) [SEQ ID NO 357]
26 | 4.3 | – | PSLSIDLPLLLLRTLLELEKTQSQRERAEQNAIIFASV-NH2 [SEQ ID NO 344]
27 | 100 | 18 | IVLSLDVPIGLLQILLEQARHAAAHAAAHAQAHILAHV-NH2 [SEQ ID NO 367]
28 | 22.4 | – | DNPSLSIDLPLLLLRTLLELEKTQSQRERAEQNAIIFASV-NH2 [SEQ ID NO 347]
29 | 39.7 | 100 | DNPSLSIDLPLILLRTLLELEKTQSQRERAEQNAIIFASV-NH2 [SEQ ID NO 345]
30 | 6.62 | 97 | IVLSLDVPIHLLQILLEQARARAAREQATTNARILARV-NH2 [SEQ ID NO 371]
31 | 100 | 18 | IVLSLDVPIGLLQILLEQARHAHAHAHAHAQAHILAHV-NH2 [SEQ ID NO 369]
32 | 100 | 46 | IVLSLDVPIGLLQILLEKAAAEAEAAAKAAQEQILAHV-NH2 [SEQ ID NO 366]
33 | 50.4 | – | IVLSLDVPIGLLQILLEQARARAAREQATTNARILARVM-NH2 [SEQ ID NO 368]
34 | 5.56 | 100 | ZGPPISIDLPFQLLRILIEIEKQEKEKQQAANNALLLAT (C-terminal amide) [SEQ ID NO 358]
35 | 8.48 | – | DNPSLSIDLPLLLLRTLLELEKTQSQRERAEQNAIIFASV-NH2 [SEQ ID NO 346]
36 | 12.9 | 97.4 | ZGPPISIDLPFQLLRKVIEIEKQEKEKQQATTNARLLDRV (C-terminal amide) [SEQ ID NO 351]
37 | 25.1 | 100 | ZGPPISIDLPFQLLRKAIEIEKQEKEKQQATTNARLLDRV (C-terminal amide) [SEQ ID NO 363]
38 | 4.75 | 89.9 | ZGPPISIDLPLYLLRKMIEIEKQEKEKQQATTNARILARV (C-terminal amide) [SEQ ID NO 353]
39 | 83 | – | IVLSLDVPIGLLQILLEQARARAAREQATTNARILARVM-NH2 [SEQ ID NO 356]

molecular target: CRF1R; test: cell-based or functional assay

Row | CRF1R EC50 [nM] | CRF1R Emax % [%] | Binder
40 | 630 | – | PSLSIDLPLLLLRTLLELEKTQSQRERAEQNAIIFASV-NH2 [SEQ ID NO 348]
41 | 1000 | 33 | IVLSLDVSIGLLQILLEQARARAAREQATTNARILARV-NH2 [SEQ ID NO 370]
42 | 1000 | 13.4 | IVLSLDVPIGLLQILLEQARARAAREQATTNARILARV-NH2 [SEQ ID NO 354]
43 | 1000 | 44.2 | ZGPPISIDLPLQLLRKVIEIEKQEKEKQQAANNALLLATI (C-terminal amide) [SEQ ID NO 349]
44 | 1000 | 36 | ZGPPISIDVPYYLLRKVIEIEKQEKEKQQAANNARLLARI (C-terminal amide) [SEQ ID NO 378]
45 | 1000 | 21 | ZGPPISIDLPFQLLRKAIEIEKQEKEKQQAANNALLLDTI (C-terminal amide) [SEQ ID NO 365]
46 | 157 | 100 | ZGPPISIDLPFQLLRLLIEIEKQEKEKQQAANNALLLATI (C-terminal amide) [SEQ ID NO 360]
47 | 1000 | 8 | ZGPPISIDVPFQLLRKVIEIEKQEKEKQQAANNARLLDTI (C-terminal amide) [SEQ ID NO 382]
48 | 18 | 100 | ZGPPISIDLSLELLRKMIEIEKQEKEKQQAANNRLLLDTI (C-terminal amide) [SEQ ID NO 355]
49 | 386 | 100 | ZGPPISIDLPFQLLRKIIEIEKQEKEKQQAANNALLLATI (C-terminal amide) [SEQ ID NO 362]
50 | 1000 | 25 | ZGPPISIDVPYHLLRKVIEIEKQEKEKQQAANNARLLARI (C-terminal amide) [SEQ ID NO 377]
51 | 1000 | 22 | ZGPPISIDVPYQLLRKVIEIEKQEKEKQQAANNARLLARI (C-terminal amide) [SEQ ID NO 375]
52 | 1000 | 13 | ZGPPISIDVPYWLLRKVIEIEKQEKEKQQAANNARLLDTI (C-terminal amide) [SEQ ID NO 372]
53 | 1000 | 27 | ZGPPISIDLPFQLLRKAIEIEKQEKEKQQAANNALLLATI (C-terminal amide) [SEQ ID NO 364]
54 | 230 | 100 | ZGPPISIDLPFQLLREVIEIEKQEKEKQQAANNALLLATI (C-terminal amide) [SEQ ID NO 359]
55 | 1000 | 8 | ZGPPISIDVPYHLLRKVIEIEKQEKEKQQAANNARLLDTI (C-terminal amide) [SEQ ID NO 376]
56 | 1000 | 16 | ZGPPISIDVPLQLLRKVIEIEKQEKEKQQAANNARLLDTI (C-terminal amide) [SEQ ID NO 380]
57 | 780 | 82.6 | ZGPPISIDLPFQLLRKVIEIEKQEKEKQQAANNALLLATI (C-terminal amide) [SEQ ID NO 352]
58 | 1000 | 27 | ZGPPISIDVPLQLLRKVIEIEKQEKEKQQAANNARLLARI (C-terminal amide) [SEQ ID NO 381]
59 | 1000 | 11 | ZGPPISIDVPYQLLRKVIEIEKQEKEKQQAANNARLLDTI (C-terminal amide) [SEQ ID NO 374]

Row | CRF1R EC50 [nM] | CRF1R Emax % [%] | Binder
60 | 1000 | 48 | ZGPPISIDLPFQLLRKVIEIEKQEKEKQQAANNALLLDTI (C-terminal amide) [SEQ ID NO 350]
61 | 1000 | 8 | ZGPPISIDVPIYLLRKVIEIEKQEKEKQQAANNARLLARI (C-terminal amide) [SEQ ID NO 379]
62 | 149 | 100 | ZGPPISIDLPFQLLRVLIEIEKQEKEKQQAANNALLLATI (C-terminal amide) [SEQ ID NO 361]
63 | 1000 | 9 | ZGPPISIDVPYWLLRKVIEIEKQEKEKQQAANNARLLARI (C-terminal amide) [SEQ ID NO 373]
64 | 331 | 100 | ZGPPISIDLPFQLLRKLIEIEKQEKEKQQAANNALLLATI (C-terminal amide) [SEQ ID NO 357]
65 | 650 | – | PSLSIDLPLLLLRTLLELEKTQSQRERAEQNAIIFASV-NH2 [SEQ ID NO 344]
66 | 1000 | 6 | IVLSLDVPIGLLQILLEQARHAAAHAAAHAQAHILAHV-NH2 [SEQ ID NO 367]
67 | 1000 | – | DNPSLSIDLPLLLLRTLLELEKTQSQRERAEQNAIIFASV-NH2 [SEQ ID NO 347]
68 | 1000 | 18.8 | DNPSLSIDLPLILLRTLLELEKTQSQRERAEQNAIIFASV-NH2 [SEQ ID NO 345]
69 | 1000 | 22 | IVLSLDVPIHLLQILLEQARARAAREQATTNARILARV-NH2 [SEQ ID NO 371]
70 | 1000 | 4 | IVLSLDVPIGLLQILLEQARHAHAHAHAHAQAHILAHV-NH2 [SEQ ID NO 369]
71 | 1000 | 9 | IVLSLDVPIGLLQILLEKAAAEAEAAAKAAQEQILAHV-NH2 [SEQ ID NO 366]
72 | 1000 | – | IVLSLDVPIGLLQILLEQARARAAREQATTNARILARVM-NH2 [SEQ ID NO 368]
73 | 99 | 100 | ZGPPISIDLPFQLLRILIEIEKQEKEKQQAANNALLLAT (C-terminal amide) [SEQ ID NO 358]
74 | 1000 | – | DNPSLSIDLPLLLLRTLLELEKTQSQRERAEQNAIIFASV-NH2 [SEQ ID NO 346]
75 | 1000 | 85.7 | ZGPPISIDLPFQLLRKVIEIEKQEKEKQQATTNARLLDRV (C-terminal amide) [SEQ ID NO 351]
76 | 1000 | 20 | ZGPPISIDLPFQLLRKAIEIEKQEKEKQQATTNARLLDRV (C-terminal amide) [SEQ ID NO 363]
77 | 230 | 92.2 | ZGPPISIDLPLYLLRKMIEIEKQEKEKQQATTNARILARV (C-terminal amide) [SEQ ID NO 353]
78 | 1000 | – | IVLSLDVPIGLLQILLEQARARAAREQATTNARILARVM-NH2 [SEQ ID NO 356]
